Results taken from publication PMC4165446.

Columns and labels:
Test in all cases: other fluorescence titration
[1] = molecular target: FIH-Gln239 → Ala variant (human)
[2] = molecular target: FIH-Gln239 → Asn variant (human)
[3] = molecular target: FIH-Gln239 → Glu variant (human)
[4] = molecular target: FIH-Gln239 → His variant (human)

Kd [1]: 100 µM | Kd [2]: 98 µM | Kd [3]: 75 µM | Kd [4]: 64 µM
Binder: DESGLPQLTSYDAEVNAPIQGSRNLLQGEELLRALDQVN [39-mer CTAD peptide (C-terminal activation domain of human HIF1α, HIF1α 788–826, Cys800 → Ala)]
